Here are results for seven molecules from paper PMC10954479 (Nucleic Acids Research, 2024).

To fix the notation:
B2: HDAC4GRD (residues 62–192) H109D mutant (domain or fragment)
chain: AEPALREQQLQQELLALKQKQQIQRQILIAEFQRQHEQLSRQHEAQLDEHIKQQQEMLAMKHQQELLEHQRKLERHRQEQELEKQHREQKLQQLKNKEKGKESAVASTEVKMKLQEFVLNKKKALAHRNLN

The series “crystal structure” concerns the molecule itself. Kind of series: crystal structure.
The series “SEC” concerns the molecule itself. Kind of series: SEC. (In gel filtration, larger molecules generally elute earlier.)
In series [1] the target is T1, MEF2A1-95;HDAC4GRD WT (Homo sapiens;Homo sapiens, UniProt Q02078;P56524 1-95;62-192, |). Kind of series: pull-down.
The target in series [2] is T2, MEF2A1-95;HDAC4GRD H109D (Homo sapiens;Homo sapiens, UniProt Q02078;P56524 1-95;62-192, |H109D). Kind of series: pull-down.
Series [3] addresses T1, MEF2A1-95;HDAC4GRD WT. The series is described as follows: pull-down. This is another data set of the same source.
Series [4] deals with T3, HDAC4GRD (residues 62–192) F93D mutant (human, UniProt P56524 62-192, F93D).
T3 sequence: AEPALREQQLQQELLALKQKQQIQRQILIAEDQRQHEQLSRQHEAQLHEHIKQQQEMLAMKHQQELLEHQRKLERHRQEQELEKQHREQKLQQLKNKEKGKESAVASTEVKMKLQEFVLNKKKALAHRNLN
The series is described as follows: native gel or EMSA. For orientation: In EMSA bound probe runs differently from free probe, usually more slowly.

The target of series [5] is B2. Kind of series: native gel or EMSA.
The target in series [6] is T1, MEF2A1-95;HDAC4GRD WT. Kind of series: EMSA.
The target of series [7] is T2, MEF2A1-95;HDAC4GRD H109D. Kind of series: EMSA.
The target of the next series is MEF2A1-95;HDAC4GRD F93D (Homo sapiens;Homo sapiens, UniProt Q02078;P56524 1-95;62-192, |F93D). Kind of series: EMSA.
Series [8] has as its target T1, MEF2A1-95;HDAC4GRD WT. Kind of series: X-ray crystallography.

B1: human HDAC4 glutamine-rich domain (HDAC4GRD, residues 62–192), wild type (domain or fragment)
chain: AEPALREQQLQQELLALKQKQQIQRQILIAEFQRQHEQLSRQHEAQLHEHIKQQQEMLAMKHQQELLEHQRKLERHRQEQELEKQHREQKLQQLKNKEKGKESAVASTEVKMKLQEFVLNKKKALAHRNLN
With B1, the “stoichiometry N” value in “crystal structure” was determined as 2.
Turning to B2, in “SEC”, the binding result is recorded as “binds”.

B3: Site-2 DNA (dsDNA)
DNA 1: CTAAGCAAATGAGATGAATATGCAGGGCACCATGCTAAAAATAAAATGGTTTCATGGTGCTAGTGAGGAAGGAA
DNA 2: TTCCTTCCTCACTAGCACCATGAAACCATTTTATTTTTAGCATGGTGCCCTGCATATTCATCTCATTTGCTTAG
Consider B3, for which the binding result with MEF2A1-95;HDAC4GRD WT [1] and with MEF2A1-95;HDAC4GRD H109D [2] was “binds” throughout.

B4: Site-1 DNA (dsDNA)
DNA 1: GGGAAAGTTTCTATTATTAGCAGAGATA
DNA 2: TATCTCTGCTAATAATAGAAACTTTCCC
B4: the binding result in the series with MEF2A1-95;HDAC4GRD WT [3] is “binds”.

B5: human MEF2A MADS-box/MEF2s domain (residues 1–95) (domain or fragment)
chain: MGRKKIQITRIMDERNRQVTFTKRKFGLMKKAYELSVLCDCEIALIIFNSSNKLFQYASTDMDKVLLKYTEYNEPHESRTNSDIVEALNKKEHRG
On to B5, for which, in the series “crystal structure”, the “stoichiometry N” value is 2. The binding result in series [4] and in [5] was “binds” throughout.

B6: 28 bp EMSA DNA (dsDNA)
DNA 1: GGGAAAGTTTCTATTATTAGCAGAGATA
DNA 2: TATCTCTGCTAATAATAGAAACTTTCCC
On to B6, for which the binding result in the series with MEF2A1-95;HDAC4GRD WT [6], with MEF2A1-95;HDAC4GRD H109D [7] and in the series with MEF2A1-95;HDAC4GRD F93D was “binds” throughout.

B7: 15 bp crystallization DNA (dsDNA)
DNA 1: AAACTATTTATAAGA
DNA 2: TCTTATAAATAGTTT
B7: the binding result in the series with MEF2A1-95;HDAC4GRD WT [8] is “binds”.

What is called stoichiometry N is a count of units in the complex or per binding partner.
